Positions count from the first letter of the chain named. Read-outs that look alike come from different tables or passages of the source.
Columns and labels:
TGFβ1 (R&D Systems) [1] = assay: cell-based or functional assay
TGFβ2 (R&D Systems) [2] = target: T1, TGFβ2 (R&D Systems); assay: cell-based or functional assay
T1 sequence (P61812 303-414, species assumed, looked up): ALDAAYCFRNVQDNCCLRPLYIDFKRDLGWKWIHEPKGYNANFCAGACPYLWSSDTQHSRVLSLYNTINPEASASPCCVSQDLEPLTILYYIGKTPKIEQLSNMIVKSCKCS

TGFβ3 (R&D Systems) [3] = target: T2, TGFβ3 (R&D Systems) (Homo sapiens (Human), UniProt P10600 301-412, Active TGFβ3 is a disulfide-linked homodimer of this chain; one copy is given.); assay: cell-based or functional assay
T2 sequence: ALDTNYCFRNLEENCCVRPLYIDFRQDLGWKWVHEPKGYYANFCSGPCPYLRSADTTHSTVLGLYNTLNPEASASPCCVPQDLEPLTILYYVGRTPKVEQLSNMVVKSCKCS

TGFβ1 (R&D Systems) [4] = target: T3, TGFβ1 (R&D Systems); assay: SPR, TGFβ on chip
T3 construct: also called TGFB1
T3 sequence (P01137 279-390): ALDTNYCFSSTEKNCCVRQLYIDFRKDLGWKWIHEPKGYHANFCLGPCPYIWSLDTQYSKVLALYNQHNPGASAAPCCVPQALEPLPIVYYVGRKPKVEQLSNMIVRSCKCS
Text: (§1) To avoid affinity differences associated with differential surface preparation that can occur when immobilizing antibodies to surfaces, TGFβ1, TGFβ2, and TGFβ3 (R&D Systems) were directly conjugated to the individual surface. Immobilization was obtained by amine coupling […] using N-hydroxysuccinimide (NHS)/1-Ethyl-3-(3-dimethylaminopropyl) carbodiimide (EDC) chemistry. Chips were quenched with ethanolamine and the affinity with which all candidate mAbs bound to the immobilized TGFβ was evaluated. All curves were fit to a 1:1 model. Affinities <10⁻¹¹ are below the lower limit of quantitation of detection for the instrument.

TGFβ2 (R&D Systems) [5] = target: T1, TGFβ2 (R&D Systems); assay: SPR, TGFβ on chip
Text: as §1

TGFβ3 (R&D Systems) [6] = target: T2, TGFβ3 (R&D Systems); assay: SPR, TGFβ on chip
Text: as §1

TGFβ1 (R&D Systems) [7] = target: T3, TGFβ1 (R&D Systems); assay: cell-based or functional assay; remark: listed apart in the source
TGFβ3 (R&D Systems) [8] = target: T2, TGFβ3 (R&D Systems); assay: cell-based or functional assay; remark: listed apart in the source
TGFβ3 (R&D Systems) [9] = target: T2, TGFβ3 (R&D Systems); assay: SPR
TGFβ1 (R&D Systems) [10] = target: T3, TGFβ1 (R&D Systems); assay: cell-based or functional assay; remark: listed apart in the source
TGFβ1 (R&D Systems) [11] = target: T3, TGFβ1 (R&D Systems); assay: SPR full titration
TGFβ3 (R&D Systems) [12] = target: T2, TGFβ3 (R&D Systems); assay: SPR full titration
canine TGFβ2 = target: T4, canine TGFβ2 (canine, UniProt A0A8I3PZZ6 331-442); assay: SPR
T4 sequence: T1 sequence (P61812 303-414, species assumed, looked up)

canine TGFβ3 = target: T5, canine TGFβ3 (canine, UniProt A0A8I3S1P1 346-457); assay: SPR
T5 sequence: T2 sequence

canine TGFβ1 = canine TGFβ1 (canine, UniProt P54831 279-390, limits assumed); assay: SPR, TGFβ on chip
Chain of canine TGFβ1 (P54831 279-390 limits assumed): as the sequence (P01137 279-390) above
Text: as §1

TGFβ1 (R&D Systems) [13] = target: T3, TGFβ1 (R&D Systems); assay: SPR full titration; remark: listed apart in the source
TGFβ2 (R&D Systems) [14] = target: T1, TGFβ2 (R&D Systems); assay: SPR full titration
TGFβ3 (R&D Systems) [15] = target: T2, TGFβ3 (R&D Systems); assay: SPR full titration; remark: listed apart in the source

B1: felHclb 1-1WMN (antibody, V domains shown)
VH: QVLLVQSGAEVRTPGASVKIFCKASGYIFITYWMNWVRQSPAQGLEWMGSIFPASGSTSYAQKFQGRLTLTADTSTNTAYMELSSLRSADTAMYYCARGDGNYALDAMDYWGQGTSVTVSS
VL: EIQMTQSPSSLSASPGDRVTITCRASESVDSYGNSFMHWYQQKPGKVPKLLIYLASNLESGVPSRFSGSGSGTDFTLTISSLEPEDAATYYCQQNNEDPLTFGAGT
- CMVIC pSmad-3, IC50 (TGFβ1 (R&D Systems) [1]): 69.7 nM
- CMVIC pSmad-3, IC50 (TGFβ2 (R&D Systems) [2]): 121 nM
- CMVIC pSmad-3, IC50 (TGFβ3 (R&D Systems) [3]): 10.1 nM

B2: felHclb 1-1xWMN (antibody, V domains shown)
VH: B1 VH with S50Q, S59N, A61N, Q62E, K63M, Q65E
VL: B1 VL
- CMVIC pSmad-3, IC50 (TGFβ1 (R&D Systems) [1]): 0.35 nM
- CMVIC pSmad-3, IC50 (TGFβ2 (R&D Systems) [2]): 1.99 nM
- CMVIC pSmad-3, IC50 (TGFβ3 (R&D Systems) [3]): 0.53 nM

B3: chi04H09 (mouse-dog) (antibody, V domains shown)
VH: QVQLQQSGAELVKPGASVKISCKASGYAFSSSWMNWVKQRPGKGLEWIGQIYPGDGDTNYNGKFKGKATLTADKSSSTAYMQLSSLTSEDSAVYFCARHYDGSTDYWGQGTTLTVSS
VL: DIQMTQSPASLSVSVGETVTITCRASENIYSNLAWYQQKQGKSPQLLVYAATNLADGVPSRFSGSGSGTQYSLKINSLQSEDFGSYYCQHFWGTPYTFGGGTKLEIKR
notes: also called mouse:canine 04H09 chimera
- Kd (TGFβ1 (R&D Systems) [4]): 4.01 nM
- Kd (TGFβ2 (R&D Systems) [5]): 27.7 nM
- Kd (TGFβ3 (R&D Systems) [6]): 4.64 nM
- CMVIC pSmad-3, IC50 (TGFβ1 (R&D Systems) [7]): 3.5 nM
- CMVIC pSmad-3, IC50 (TGFβ3 (R&D Systems) [8]): 66.5 nM

B4: fel-TGFβ1-Spec (antibody)
heavy: DVQLVESGGDLVKPGGSLRLTCVASGFTFSSYGMHWVRQAPGKELEWVAVISYDGSIKYYADAVKGRFTISRDNAKNTLYLQMNSLKTEDTATYYCARTGEYSGYDTDPQYSWGQGTTVTVSSASTTAPSVFPLAPSCGTTSGATVALACLVLGYFPEPVTVSWNSGALTSGVHTFPAVLQASGLYSLSSMVTVPSSRWLSDTFTCNVAHPPSNTKVDKTVRKTDHPPGPKPCDCPKCPPPEAAGAPSIFIFPPKPKDTLSISRTPEVTCLVVDLGPDDSDVQITWFVDNTQVYTAKTSPREEQFNSTYRVVSVLPILHQDWLKGKEFKCKVNSKSLPSPIERTISKAKGQPHEPQVYVLPPAQEELSRNKVSVTCLIKSFHPPDIAVEWEITGQPEPENNYRTTPPQLDSDGTYFVYSKLSVDRSHWQRGNTYTCSVSHEALHSHHTQKSLTQSPGK
light: EIQMTQSPSSLSASPGDRVTITCRASQGIGDDLGWYQQKPGKVPKLLIYGTSTLQSGVPSRFSGSGSGTDFTLTISSLEPEDAATYYCLQDSNYPLTFGGGTKRSDAQPSVFLFQPSLDELHTGSASIVCILNDFYPKEVNVKWKVDGVVQNKGIQESTTEQNSKDSTYSLSSTLTMSSTEYQSHEKFSCEVTHKSLASTLVKSFQRSECQRE
notes: also called FelSL501-VH3-9/FelSL501-VL1-1
- binding result (TGFβ3 (R&D Systems) [9]): no binding
- CMVIC pSmad-3, IC50 (TGFβ1 (R&D Systems) [10]): 9.03 nM

B5: fel-TGFβ1_hetero-chimera-1 (antibody)
heavy: B4 heavy
light: B4 light with Q3V, M4L, P15V, V43A, K45I, S76N, E79Q, A83F
- binding result (TGFβ3 (R&D Systems) [9]): no binding
- CMVIC pSmad-3, IC50 (TGFβ1 (R&D Systems) [10]): 30.1 nM

B6: fel-TGFβ1_hetero-chimera-2 (antibody)
heavy: EVQLVESGGGVVQPGRSLRLSCAASGFTFSSYGMHWVRQAPGKELEWVAVISYDGSIKYYADSVKGRFTISRDNSKNTLYLQMNSLRAEDTAVYYCARTGEYSGYDTDPQYSWGQGTTVTVSSASTTAPSVFPLAPSCGTTSGATVALACLVLGYFPEPVTVSWNSGALTSGVHTFPAVLQASGLYSLSSMVTVPSSRWLSDTFTCNVAHPPSNTKVDKTVRKTDHPPGPKPCDCPKCPPPEAAGAPSIFIFPPKPKDTLSISRTPEVTCLVVDLGPDDSDVQITWFVDNTQVYTAKTSPREEQFNSTYRVVSVLPILHQDWLKGKEFKCKVNSKSLPSPIERTISKAKGQPHEPQVYVLPPAQEELSRNKVSVTCLIKSFHPPDIAVEWEITGQPEPENNYRTTPPQLDSDGTYFVYSKLSVDRSHWQRGNTYTCSVSHEALHSHHTQKSLTQSPGK
light: B4 light
- binding result (TGFβ3 (R&D Systems) [9]): no binding
- CMVIC pSmad-3, IC50 (TGFβ1 (R&D Systems) [10]): 11.9 nM

B7: chi SL501 (antibody)
heavy: EVQLVESGGGVVQPGRSLRLSCAASGFTFSSYGMHWVRQAPGKELEWVAVISYDGSIKYYADSVKGRFTISRDNSKNTLYLQMNSLRAEDTAVYYCARTGEYSGYDTDPQYSWGQGTTVTVSSASTTAPSVFPLAPSCGSTSGSTVALACLVSGYFPEPVTVSWNSGSLTSGVHTFPSVLQSSGLYSLSSMVTVPSSRWPSETFTCNVAHPASKTKVDKPVPKRENGRVPRPPDCPKCPAPEAAGAPSVFIFPPKPKDTLLIARTPEVTCVVVDLDPEDPEVQISWFVDGKQMQTAKTQPREEQFNGTYRVVSVLPIGHQDWLKGKQFTCKVNNKALPSPIERTISKARGQAHQPSVYVLPPSREELSKNTVSLTCLIKDFFPPDIDVEWQSNGQQEPESKYRTTPPQLDEDGSYFLYSKLSVDKSRWQRGDTFICAVMHEALHNHYTQESLSHSPGK
light: EIVLTQSPSSLSASVGDRVTITCRASQGIGDDLGWYQQKPGKAPILLIYGTSTLQSGVPSRFSGSGSGTDFTLTINSLQPEDFATYYCLQDSNYPLTFGGGTKRNDAQPAVYLFQPSPDQLHTGSASVVCLLNSFYPKDINVKWKVDGVIQDTGIQESVTEQDKDSTYSLSSTLTMSSTEYLSHELYSCEITHKSLPSTLIKSFQRSEC
notes: also called Chimera-SL501-VH/Chimera-SL501-VL
- Kd (TGFβ1 (R&D Systems) [11]): 0.472 nM
- binding result (TGFβ3 (R&D Systems) [12]): no binding

B8: Can04H09 VH3/VL1 (antibody, V domains shown)
VH: EVQLVQSAAEVKKPGASVKVSCKTSGYTFTSSWMNWVQQAPGAGLDWMGQIYPGDGDTNYNGKFKGRVTLTADTSTSTAYMELSSLRAEDTAVYYCARHYDGSTDYWGQGTLVTVSS
VL: DIVMTQNPLSLSVSPGETASISCRASENIYSNLAWFRQKPGQSPQRLIYAATNLADGVPDRFSGSGSGTDFTLRISRVEADDTGVYYCQHFWGTPYTFGQGTK
- binding result (canine TGFβ2): no binding
- binding result (canine TGFβ3): no binding
- Kd (canine TGFβ1): 3980 nM

B9: Can04H09 VH1/VL1 (antibody, V domains shown)
VH: B8 VH with A8G, T30I, Q38R, E89G, T91I
VL: B8 VL
- binding result (canine TGFβ2): no binding
- binding result (canine TGFβ3): no binding
- Kd (canine TGFβ1): 284 nM

B10: Can04H09 VH2/VL1 (antibody, V domains shown)
VH: B8 VH with T28S, A43K, T74K, A88S, T91A
VL: B8 VL
- binding result (canine TGFβ2): no binding
- binding result (canine TGFβ3): no binding
- Kd (canine TGFβ1): 2190 nM

B11: H2chimK (antibody)
heavy: EVQLVQSAAEVKKPGASVKVSCKTSGYSFTTYWMNWVQQAPGKGLDWMGQIFPASGSTNYNEMFEGRVTLTVDTSTSTAYMELSSLRAEDAAVYYCARGDGNYALDAMDYWGQGTLVTASTTAPSVFPLAPSCGSTSGSTVALACLVSGYFPEPVTVSWNSGSLTSGVHTFPSVLQSSGLYSLSSMVTVPSSRWPSETFTCNVAHPASKTKVDKPVPKRENGRVPRPPDCPKCPAPEAAGAPSVFIFPPKPKDTLLIARTPEVTCVVVDLDPEDPEVQISWFVDGKQMQTAKTQPREEQFNGTYRVVSVLPIGHQDWLKGKQFTCKVNNKALPSPIERTISKARGQAHQPSVYVLPPSREELSKNTVSLTCLIKDFFPPDIDVEWQSNGQQEPESKYRTTPPQLDEDGSYFLYSKLSVDKSRWQRGDTFICAVMHEALHNHYTQESLSHSPGK
light: DIVLTQTPASLAVSLGQRATISCRASESVDSYGNSFMHWYQQKSGQPPKLLIYLASNLESGVPARFSGSGSRTDFTLTIDPVEADDAATYYCQQNNEDPLTFGAGTKRNDAQPAVYLFQPSPDQLHTGSASVVCLLNSFYPKDINVKWKVDGVIQDTGIQESVTEQDKDSTYSLSSTLTMSSTEYLSHELYSCEITHKSLPSTLIKSFQRSEC
notes: also called canHcLb-VH2/chiHcLb-VL
- Kd (TGFβ1 (R&D Systems) [13]): 16.3 nM
- Kd (TGFβ2 (R&D Systems) [14]): 6.62 nM
- Kd (TGFβ3 (R&D Systems) [15]): 2.26 nM

Reference: patent US20220119513A1 (ZOETIS SERVICES, published 2022)
